Measured values as given in paper PMC6226330.

Experiments:
Test in all cases: purified protein, by the assay type
Settings in all cases: pH 8.0; 25.0 °C
[1] = substrate: Nc1ccc(C(=O)O)cc1
[2] = substrate: Nc1ccc(C(=O)O)c(O)c1
[3] = substrate: Nc1ccc(C(=O)O)c(F)c1

B1: S. aureus DHPS (Staphylococcus aureus) (protein)
chain: MTKTKIMGILNVTPDSFSDGGKFNNVESAVTRVKAMMDEGADIIDVGGVSTRPGHEMITVEEELNRVLPVVEAIVGFDVKISVDTFRSEVAEACLKLGVDIINDQWAGLYDHRMFQVVAKYDAEIVLMHNGNGNRDEPVVEEMLTSLLAQAHQAKIAGIPSNKIWLDPGIGFAKTRNEEAEVMARLDELVATEYPVLLATSRKRFTKEMMGYDTTPVERDEVTAATTAYGIMKGVRAVRVHNVELNAKLAKGIDFLKENENARHNFS
Km [1]: 2 ± 1 µM
kcat [1]: 170 ± 15 min^–1
Km [2]: 8 ± 1 µM
kcat [2]: 220 ± 10 min^–1
Km [3]: 5 ± 2 µM
kcat [3]: 200 ± 20 min^–1
